In PMC7666158 one finds response data, which are given here for one variant.

The chains are these.
B1: Sbit-ATF2(19–100), ATF2 TAD wild type (NanoBiT probe) [human] / Lbit-JNK1 (NanoBiT probe) [human] (parent)
chain 1: MSDDKPFLCTAPGCGQRFTNEDHLAVHKHKHEMTLKFGPARNDSVIVADQTPTPTRFLKNCEEVGLFNELASPFENEFKKAS
chain 2: MSRSKRDNNFYSVEIGDSTFTVLKRYQNLKPIGSGAQGIVCAAYDAILERNVAIKKLSRPFQNQTHAKRAYRELVLMKCVNHKNIIGLLNVFTPQKSLEEFQDVYIVMELMDANLCQVIQMELDHERMSYLLYQMLCGIKHLHSAGIIHRDLKPSNIVVKSDCTLKILDFGLARTAGTSFMMTPYVVTRYYRAPEVILGMGYKENVDLWSVGCIMGEMVCHKILFPGRDYIDQWNKVIEQLGTPCPEFMKKLQPTVRTYVENRPKYAGYSFEKLFPDVLFPADSEHNKLKASQARDLLSKMLVIDASKRISVDEALQHPYINVWYDPSEAEAPPPKIPDKQLDEREHTIEEWKELIYKEVMDLEERTKNGVIRGQPSPLGAAVINGSQHPSSSSSVNDVSSMSTDPTLASDTDSSLEAAAGPLGCCR

This experiment covers variants of B1. The experiment in a line: NanoBit luciferase complementation in HEK293T cells. The note with it: with Lbit-JNK1 (NanoBiT probe) [human]; anisomycin (30 min); normalized to control (−) = 1.0; read off a plot; scale: relative luminescence intensity.
Regarding chain 1 K30E, the response is 1.
